B1: TPR t1 (parent)
chain: GACCAAUCUGCCCUCAGAGCUCGAGAACAUCUUCGGAUGCAGAGGAGGCAGGCUUCGGUGGCGCGAUAGCGCCAACGUCCUCAACCUCCAAUGCAUCCCACCACAUGAUGAUGCCUGAAGAGCCUUGGUUUUUUG

Variants of: B1
Assay: polymerase ribozyme fitness, log enrichment relative to wild type (log ratio); higher = more active; in vitro selection for triplet polymerase activity
In short: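 Mutant libraries of both subunits of a heterodimeric triplet polymerase ribozyme were PCR-built, transcribed, and selected once in triplicate, with frozen incubation at −7 °C and capture of gel-excised extended constructs on streptavidin beads before RT-PCR. Illumina sequencing of input and output libraries was filtered to genotypes with ≥10 input reads and ≥1 read per output. Fitness is the logarithm of genotype enrichment over wild-type enrichment, using inverse-variance-weighted replicate averages. The logarithm is base 2.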

First: GACCAAUCUGCCCUCAGAGCUCGAGAACAUCUUCGGAUGCAGAGGAGGCAGGCUUCGGUGGCGCGAUAGCGUCAACGUCCUCAUCCUCCAAUGCAUCCCAACACAUGAUGAUGCUUGAAGAGCCUUACUUUUUUG
Second: GACCAAUCUGCCCUCAGAGCUCGAGAACAUCUUCGGAUGCAGAGGAGGCAGGCUUCGGUGGCGCGAUAGCGGCAACGUCCUCAAGCUCCAAUGCAUCCCCCCACAUGAUGAUGCCUGAAGCGCCUUGGUUUUUUG
The “polymerase ribozyme fitness (log ratio)” value of the first is lower: -6.94 for the first, -1.55 for the second.

Compared with GACCAAUCUGCCCUCAGAGCUCGAGAACAUCUUCGGAUGCAGAGGAGGCAGGCUUCGGUGGCGCGAUAGCGUCAACGUCCUCAGCCUCCAAUGCAUCCCACCACAUGAUGAUGCCUCAAGAGCCUUGGUUUUUUG, GACCAAUCUGCCCUCAGAGCUCGAGAACAUCUUCGGAUGCAGAGGAGGCAGGCUUCGGUGGCGCGAUAGCGGCAACGUCCUCAACCUCCAAUACAUCCCAACACAUGAUGUUGCCUGAAGAGCCUUGGUUUUUUG is lower in “polymerase ribozyme fitness (log ratio)” value: -4.48 for the first, -4.69 for the second.

Compared with GACCAAUCUGCCCUCAGAGCUCGAGAACAUCUUCGGAUGCAGAGGAGGCAGGCUUCGGUGGCGCGAUAGCGUCUACGUCCCCAACCUCCAAUGCAUCCCACCACAUGAUGAUGCCUGAAGAGCCUUGGUUUUUUG, GACCAAUCUGCCCUCAGAGCUCGAGAACAUCUUCGGAUGCAGAGGAGGCAGGCUUCGGUGGCGCGAUAGCGGCAACGUCUUCAACCUCCAAUGCAUCCCACCACAUGAUGAUGCCUGAAGAGCCUUGGUUUUUUG is lower in “polymerase ribozyme fitness (log ratio)” value: -0.388 for the first, -0.861 for the second.

Compared with GACCAAUCUGCCCUCAGAGCUCGAGAACAUCUUCGGAUGCAGAGGAGGCAGGCUUCGGUGGCGCGAUAGCGGCAACGUCCUCAACCUCCAAUGCAUCCCACCACAUGAUGAUGCCUGAAGAGCCUUGGUUUAUUG, GACCAAUCUGCCCUCAGAGCUCGAGAACAUCUUCGGAUGCAGAGGAGGCAGGCUUCGGUGGCGCGAUAGCGGCAACGUCCUCAACCUCCAAUGCAUCCCACCACAUGAUGAUGCCUGAAGAACCUUGGUUUUUUG is lower in “polymerase ribozyme fitness (log ratio)” value: -0.151 for the first, -1 for the second.

Compared with GACCAAUCUGCCCUCAGAGCUCGAGAACAUCUUCGGAUGCAGAGGAGGCAGGCUUCGGUGGCGCGAUAGCGGCAACGUCCUCAACCUCCAAUGCACCCCACCACAUGAUGAUGCCUGAAGAGCCUUGGUUUUUUG, GACCAAUCUGCCCUCAGAGCUCGAGAACAUCUUCGGAUGCAGAGGAGGCAGGCUUCGGUGGCGCGAUAGCGGCAACGUCCUCAACCUCCAAUGCAACCCACCACAUGAUGAUGCCUGAAGAGCCUUGGUUUUUUG is lower in “polymerase ribozyme fitness (log ratio)” value: -1.25 for the first, -2.18 for the second.

First: GACCAAUCUGCCCUCAGAGCUCGAGAACAUCUUCGGAUGCAGAGGAGGCAGGCUUCGGUGGCGCGAUAGCGUCAACGUCCUCAACCUCCACUGCAUCCCACCACAUGAUGAUGCCUGAAGAGCCUUAGUUUUUUG
Second: GACCAAUCUGCCCUCAGAGCUCGAGAACAUCUUCGGAUGCAGAGGAGGCAGGCUUCGGUGGCGCGAUAGCGUCAACGUCCUCAACCUCCAAUGCCUUCCACCACAUGAUGAUGCCUGAAGAGCCUUGGUUUUUUG
The “polymerase ribozyme fitness (log ratio)” value of the first is higher: -2.46 for the first, -2.94 for the second.

Compared with GACCAAUCUGCCCUCAGAGCUCGAGAACAUCUUCGGAUGCAGAGGAGGCAGGCUUCGGUGGCGCGAUAGCGGCAACGUCCUCAACCUCCAAUGCAUCCCACAACAUGAUGAUGCCUGAAGAGCCUUGGUUUUUUG, GACCAAUCUGCCCUCAGAGCUCGAGAACAUCUUCGGAUGCAGAGGAGGCAGGCUUCGGUGGCGCGAUAGCGGCAACGGCCUCAACCUCCAAUGCAUCCCACCACAUGAUUAUGCCUGAAGAGCCUUGGUUUUUUG is higher in “polymerase ribozyme fitness (log ratio)” value: -2.79 for the first, -2.55 for the second.

Going from GACCAAUCUGCCCUCAGAGCUCGAGAACAUCUUCGGAUGCAGAGGAGGCAGGCUUCGGUGGCGCGAUAGCGGCAACGUCCUCAACCUCCUAUGCAUCCCACCACAUGAUGAUGCCUGAAGAGCCUUGGUUUUUUG to GACCAAUCUGCCCUCAGAGCUCGAGAACAUCUUCGGAUGCAGAGGAGGCAGGCUUCGGUGGCGCGAUAGCGGCAACGUCCUCAACCUCCAAUGCAUCCCACCACAUGAUGAUGCCAGAAGAGCCUUGGUUUUUUG, the “polymerase ribozyme fitness (log ratio)” value falls from -1.11 to -3.49.

First: GACCAAUCUGCCCUCAGAGCUCGAGAACAUCUUCGGAUGCAGAGGAGGCAGGCUUCGGUGGCGCGAUAGCGGCAACGUCCUCAACCUCCAAUGCAUCCCACCACAUGAUCAUGCCUGAAGAGCCUUGGUUUUUUG
Second: GACCAAUCUGCCCUCAGAGCUCGAGAACAUCUUCGGAUGCAGAGGAGGCAGGCUUCGGUGGCGCGAUAGCGUCAACGUCCUCAUCCUCCAAUGCAUCCCAUCACAUGAUGAUGCCUGAAGAGCCUUGGUUUUUUG
The “polymerase ribozyme fitness (log ratio)” value of the first is lower: -2.42 for the first, -0.839 for the second.

Going from GACCAAUCUGCCCUCAGAGCUCGAGAACAUCUUCGGAUGCAGAGGAGGCAGGCUUCGGUGGCGCGAUAGCGGCAACGUCCUCAACCUCCAAUGCAUCCCACCACAUGAUGAUGCCUGAUGAGCGUUGGUUUUUUG to GACCAAUCUGCCCUCAGAGCUCGAGAACAUCUUCGGAUGCAGAGGAGGCAGGCUUCGGUGGCGCGAUAGCGGCAACGUCCUCAACCUCCAAUGCAUACCACCACAUGAUGAUGCCUGAAGAGCCUUGGUUUUUUG, the “polymerase ribozyme fitness (log ratio)” value falls from 1.57 to -5.43.

With GACCAAUCUGCCCUCAGAGCUCGAGAACAUCUUCGGAUGCAGAGGAGGCAGGCUUCGGUGGCGCGAUAGCGGCAACGCCCUCAACCUCCAAUGCAUCCCACCACAUGAUGAUGCCUGAAGAGCCUUGGUUUUUUG the “polymerase ribozyme fitness (log ratio)” value was -0.909.

From the RNAGym collection of RNA variant scans (doi:10.1073/pnas.2313332121)
